Experimental data published in the supplement of paper PMC9112550, “Optimization of the antimicrobial peptide Bac7 by deep mutational scanning” (BMC Biology, 2022).

System: Escherichia coli TOP10
Experiment: shrunken log2 fold change of peptide-encoding DNA abundance (4.5 h post-induction vs induction); higher = less antimicrobial activity (less host growth inhibition)
Conditions: time post-induction: 4.5 h; library: site-saturation at positions 5, 18, 19, 20
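Further: peptides expressed intracellularly from a pBAD plasmid library in pooled LB shake-flask culture, induced with 0.3% L-arabinose, DNA abundance read by NGS, three biological replicates, DESeq2 with apeglm shrinkage.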

Sequence | shrunken log2 fold change
RRIRNRPPRLPRPRPRPLHIPRP | -0.363
RRIRNRPPRLPRPRPRPLHPPRP | 0.0757
RRIRNRPPRLPRPRPRPLHRPRP | -0.249
RRIRNRPPRLPRPRPRPLHSPRP | -0.16
RRIRNRPPRLPRPRPRPLHVPRP | 0.251
RRIRNRPPRLPRPRPRPLHYPRP | -0.147
RRIRNRPPRLPRPRPRPLIAPRP | -0.305
RRIRNRPPRLPRPRPRPLICPRP | -0.771
RRIRNRPPRLPRPRPRPLIDPRP | -0.0832
RRIRNRPPRLPRPRPRPLILPRP | -0.303
RRIRNRPPRLPRPRPRPLITPRP | -0.173
RRIRNRPPRLPRPRPRPLKTPRP | -0.0746
RRIRNRPPRLPRPRPRPLLNPRP | -0.443
RRIRNRPPRLPRPRPRPLMIPRP | -0.0419
RRIRNRPPRLPRPRPRPLNFPRP | -0.71
RRIRNRPPRLPRPRPRPLNQPRP | -0.225
RRIRNRPPRLPRPRPRPLQKPRP | -0.0108
RRIRNRPPRLPRPRPRPLQYPRP | -0.0315
RRIRNRPPRLPRPRPRPLSKPRP | -0.176
RRIRNRPPRLPRPRPRPLTWPRP | -0.182
RRIRNRPPRLPRPRPRPLYAPRP | -0.0693
RRIRNRPPRLPRPRPRPLYVPRP | -0.641
RRIRNRPPRLPRPRPRPLYYPRP | -0.0384
RRIRNRPPRLPRPRPRPMCIPRP | -0.0106
RRIRNRPPRLPRPRPRPMCLPRP | -0.0215

Sequence | shrunken log2 fold change
RRIRNRPPRLPRPRPRPMCSPRP | -0.0636
RRIRNRPPRLPRPRPRPMDAPRP | 0.101
RRIRNRPPRLPRPRPRPMDLPRP | 0.00408
RRIRNRPPRLPRPRPRPMGNPRP | -0.0658
RRIRNRPPRLPRPRPRPMHWPRP | 0.0477
RRIRNRPPRLPRPRPRPMIDPRP | -0.0621
RRIRNRPPRLPRPRPRPMIWPRP | -0.166
RRIRNRPPRLPRPRPRPMKQPRP | 0.0238
RRIRNRPPRLPRPRPRPMKSPRP | -0.106
RRIRNRPPRLPRPRPRPMLAPRP | -0.053
RRIRNRPPRLPRPRPRPMLYPRP | -0.318
RRIRNRPPRLPRPRPRPMNDPRP | 0.42
RRIRNRPPRLPRPRPRPMPLPRP | -0.0789
RRIRNRPPRLPRPRPRPMQTPRP | -0.00987
RRIRNRPPRLPRPRPRPMREPRP | 0.13
RRIRNRPPRLPRPRPRPMSDPRP | -0.00992
RRIRNRPPRLPRPRPRPMVTPRP | -0.157
RRIRNRPPRLPRPRPRPMWVPRP | 0.0358
RRIRNRPPRLPRPRPRPMYPPRP | -0.271
RRIRNRPPRLPRPRPRPNCTPRP | -0.191
RRIRNRPPRLPRPRPRPNCYPRP | -0.618
RRIRNRPPRLPRPRPRPNDVPRP | -0.00503
RRIRNRPPRLPRPRPRPNFLPRP | -0.0488
RRIRNRPPRLPRPRPRPNFRPRP | 0.0289
RRIRNRPPRLPRPRPRPNHFPRP | -0.0479

Sequence | shrunken log2 fold change
RRIRNRPPRLPRPRPRPNHVPRP | -0.117
RRIRNRPPRLPRPRPRPNILPRP | -0.0518
RRIRNRPPRLPRPRPRPNIQPRP | -0.748
RRIRNRPPRLPRPRPRPNKTPRP | -0.0415
RRIRNRPPRLPRPRPRPNLSPRP | -0.0459
RRIRNRPPRLPRPRPRPNMRPRP | 0.23
RRIRNRPPRLPRPRPRPNPAPRP | 0.028
RRIRNRPPRLPRPRPRPNPWPRP | 0.107
RRIRNRPPRLPRPRPRPNRIPRP | -0.233
RRIRNRPPRLPRPRPRPNRLPRP | 0.0192
RRIRNRPPRLPRPRPRPNSLPRP | -0.335
RRIRNRPPRLPRPRPRPNVEPRP | -0.0627
RRIRNRPPRLPRPRPRPNWAPRP | 0.0482
RRIRNRPPRLPRPRPRPNWQPRP | -0.123
RRIRNRPPRLPRPRPRPNYEPRP | -0.21
RRIRNRPPRLPRPRPRPNYLPRP | -0.354
RRIRNRPPRLPRPRPRPPCFPRP | -0.00581
RRIRNRPPRLPRPRPRPPCRPRP | -0.0266
RRIRNRPPRLPRPRPRPPDDPRP | 0.123
RRIRNRPPRLPRPRPRPPEGPRP | 1.62
RRIRNRPPRLPRPRPRPPESPRP | -0.000194
RRIRNRPPRLPRPRPRPPEVPRP | 0.0233
RRIRNRPPRLPRPRPRPPFTPRP | 0.0907
RRIRNRPPRLPRPRPRPPHEPRP | 0.256
RRIRNRPPRLPRPRPRPPILPRP | 0.144

Sequence | shrunken log2 fold change
RRIRNRPPRLPRPRPRPPKLPRP | 0.0789
RRIRNRPPRLPRPRPRPPKVPRP | 0.28
RRIRNRPPRLPRPRPRPPKWPRP | 0.411
RRIRNRPPRLPRPRPRPPLGPRP | 0.331
RRIRNRPPRLPRPRPRPPLKPRP | 0.0326
RRIRNRPPRLPRPRPRPPLMPRP | -0.0745
RRIRNRPPRLPRPRPRPPLNPRP | 0.0798
RRIRNRPPRLPRPRPRPPLTPRP | 0.0501
RRIRNRPPRLPRPRPRPPMCPRP | 0.154
RRIRNRPPRLPRPRPRPPNRPRP | 2.99
RRIRNRPPRLPRPRPRPPPAPRP | 1.09
RRIRNRPPRLPRPRPRPPQLPRP | 0.131
RRIRNRPPRLPRPRPRPPQTPRP | 0.424
RRIRNRPPRLPRPRPRPPSVPRP | 0.0886
RRIRNRPPRLPRPRPRPPTAPRP | 0.295
RRIRNRPPRLPRPRPRPPTLPRP | -0.204
RRIRNRPPRLPRPRPRPPTTPRP | 0.19
RRIRNRPPRLPRPRPRPPVFPRP | 0.15
RRIRNRPPRLPRPRPRPPVTPRP | 0.228
RRIRNRPPRLPRPRPRPPWKPRP | -0.0649
RRIRNRPPRLPRPRPRPPWRPRP | 0.437
RRIRNRPPRLPRPRPRPPYDPRP | -0.561
RRIRNRPPRLPRPRPRPPYTPRP | -0.876
RRIRNRPPRLPRPRPRPQEYPRP | -0.578
RRIRNRPPRLPRPRPRPQFCPRP | -0.0424

Sequence | shrunken log2 fold change
RRIRNRPPRLPRPRPRPQGIPRP | -0.216
RRIRNRPPRLPRPRPRPQGNPRP | -0.0905
RRIRNRPPRLPRPRPRPQGYPRP | -0.667
RRIRNRPPRLPRPRPRPQHEPRP | -0.0581
RRIRNRPPRLPRPRPRPQLLPRP | -0.0811
RRIRNRPPRLPRPRPRPQMEPRP | -0.191
RRIRNRPPRLPRPRPRPQNMPRP | -0.233
RRIRNRPPRLPRPRPRPQPRPRP | 0.507
RRIRNRPPRLPRPRPRPQQFPRP | -0.0018
RRIRNRPPRLPRPRPRPQQQPRP | 0.103
RRIRNRPPRLPRPRPRPQRNPRP | -0.109
RRIRNRPPRLPRPRPRPQRVPRP | 0.399
RRIRNRPPRLPRPRPRPQRWPRP | 0.176
RRIRNRPPRLPRPRPRPQSMPRP | -0.567
RRIRNRPPRLPRPRPRPQTSPRP | -0.346
RRIRNRPPRLPRPRPRPQVLPRP | -0.0163
RRIRNRPPRLPRPRPRPRAAPRP | 0.601
RRIRNRPPRLPRPRPRPRADPRP | 0.327
RRIRNRPPRLPRPRPRPRAEPRP | 0.103
RRIRNRPPRLPRPRPRPRAHPRP | -0.0951
RRIRNRPPRLPRPRPRPRCEPRP | 0.357
RRIRNRPPRLPRPRPRPRFNPRP | -0.766
RRIRNRPPRLPRPRPRPRFWPRP | 0.395
RRIRNRPPRLPRPRPRPRHLPRP | -0.337
RRIRNRPPRLPRPRPRPRIFPRP | -0.442

Sequence | shrunken log2 fold change
RRIRNRPPRLPRPRPRPRKDPRP | 0.00266
RRIRNRPPRLPRPRPRPRKVPRP | 0.445
RRIRNRPPRLPRPRPRPRLSPRP | 0.0939
RRIRNRPPRLPRPRPRPRMFPRP | -0.362
RRIRNRPPRLPRPRPRPRMVPRP | -0.289
RRIRNRPPRLPRPRPRPRNNPRP | -0.45
RRIRNRPPRLPRPRPRPRQIPRP | 0.151
RRIRNRPPRLPRPRPRPRTKPRP | 0.123
RRIRNRPPRLPRPRPRPRVYPRP | -0.0128
RRIRNRPPRLPRPRPRPRWDPRP | 0.249
RRIRNRPPRLPRPRPRPRWMPRP | 0.0606
RRIRNRPPRLPRPRPRPRWWPRP | 0.159
RRIRNRPPRLPRPRPRPRYDPRP | -0.494
RRIRNRPPRLPRPRPRPRYEPRP | -0.27
RRIRNRPPRLPRPRPRPRYIPRP | -0.455
RRIRNRPPRLPRPRPRPSAAPRP | 0.338
RRIRNRPPRLPRPRPRPSAQPRP | 0.147
RRIRNRPPRLPRPRPRPSARPRP | 0.256
RRIRNRPPRLPRPRPRPSCTPRP | -0.34
RRIRNRPPRLPRPRPRPSCWPRP | 0.0544
RRIRNRPPRLPRPRPRPSDNPRP | -0.494
RRIRNRPPRLPRPRPRPSGFPRP | 0.0185
RRIRNRPPRLPRPRPRPSHWPRP | -0.17
RRIRNRPPRLPRPRPRPSIAPRP | -0.0838
RRIRNRPPRLPRPRPRPSINPRP | -0.537
